Publication PMC11784077

Columns and labels:
Assay in all cases: non-reducing gel electrophoresis with western blot (trimerization assay); BmN cells expressing GP64 or CARC mutants harvested, lysed in PBS (pH 7.4), separated on 10% nonreducing polyacrylamide gel, blotted with anti-GP64 (AcV5)
[1] = target: BmNPV GP64 Y49A (CARC1 mutant) (Bombyx mori nucleopolyhedrovirus (BmNPV)) (UniProt P41722)
[2] = target: BmNPV GP64 (wild type, signal peptide retained) (Bombyx mori nucleopolyhedrovirus (BmNPV)) (UniProt P41722)
[3] = target: BmNPV GP64 W154A (CARC2 mutant) (Bombyx mori nucleopolyhedrovirus (BmNPV)) (UniProt P41722)
[4] = target: BmNPV GP64 W178A (CARC3 mutant) (Bombyx mori nucleopolyhedrovirus (BmNPV)) (UniProt P41722)
[5] = target: BmNPV GP64 F235A (CARC5 mutant) (Bombyx mori nucleopolyhedrovirus (BmNPV)) (UniProt P41722)
[6] = target: BmNPV GP64 W299A (CARC6 mutant) (Bombyx mori nucleopolyhedrovirus (BmNPV)) (UniProt P41722)
[7] = target: BmNPV GP64 Y188A (CARC4 mutant) (Bombyx mori nucleopolyhedrovirus (BmNPV)) (UniProt P41722)

Substance: BmNPV GP64 Y49A (CARC1 mutant) (from UniProt P41722 1-37) (natural protein)
- stoichiometry N [1]: 3

Substance: BmNPV GP64 (wild type, signal peptide retained) (from UniProt P41722 1-37) (natural protein)
- stoichiometry N [2]: 3

Substance: BmNPV GP64 W154A (CARC2 mutant) (from UniProt P41722 1-37) (natural protein)
- stoichiometry N [3]: 3

Substance: BmNPV GP64 W178A (CARC3 mutant) (from UniProt P41722 1-37) (natural protein)
- stoichiometry N [4]: 3

Substance: BmNPV GP64 F235A (CARC5 mutant) (from UniProt P41722 1-37) (natural protein)
- stoichiometry N [5]: 3

Substance: BmNPV GP64 W299A (CARC6 mutant) (from UniProt P41722 1-37) (natural protein)
- stoichiometry N [6]: 3

Substance: BmNPV GP64 Y188A (CARC4 mutant) (from UniProt P41722 1-37) (natural protein)
- stoichiometry N [7]: 3
